Consider four molecules from US20230365681A1 (CELGENE, published 2023).

Where a chain is given by its changes, count along the chain named.

Assay [1] has as its target T1, human CD47 extracellular domain (human, UniProt Q08722 19-139).
T1 construct: extracellular domain; also called human CD47 ECD; Hu CD47
As to the kind of experiment: method not given; human CD47, form not stated there.

Assay [2] concerns the target T2, human CD47 on cells (human, UniProt Q08722 19-323).
T2 construct: whole, on cells; also called cell surface CD47; CD47 on Raji, OCI-Ly3, Fadu cells, human RBCs, platelets and blood cells
The experiment in a line: blocking of human SIRPα binding to OCI-Ly3 cells; competitor SIRPα; TPP-23, parental high-affinity anti-CD47 IgG1; OCI-Ly3 cells.

Assay [3] concerns the target T2, human CD47 on cells. The experiment in a line: cell-based or functional assay.
The target of assay [4] is T1, human CD47 extracellular domain. The experiment in a line: column HUMAN CD47 KD (µM); no assay named on the sheet, SPR with the CD47 ECD per Example 4.

T2 sequence (Q08722 19-323): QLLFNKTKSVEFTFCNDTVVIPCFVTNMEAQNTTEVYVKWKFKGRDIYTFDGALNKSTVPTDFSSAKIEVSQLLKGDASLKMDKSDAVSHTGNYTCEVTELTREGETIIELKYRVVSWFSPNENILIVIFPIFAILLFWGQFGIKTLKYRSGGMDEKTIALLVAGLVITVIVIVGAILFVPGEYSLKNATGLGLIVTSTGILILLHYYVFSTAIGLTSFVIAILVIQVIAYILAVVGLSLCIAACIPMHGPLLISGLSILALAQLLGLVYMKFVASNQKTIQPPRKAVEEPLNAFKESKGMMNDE
T1 sequence (Q08722 19-139 limits assumed): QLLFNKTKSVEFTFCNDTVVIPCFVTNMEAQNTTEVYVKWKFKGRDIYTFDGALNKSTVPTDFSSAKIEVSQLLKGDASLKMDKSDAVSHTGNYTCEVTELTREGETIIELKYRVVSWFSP

B1: CC-90002 (antibody, V domains shown)
VH: QMQLVQSGAEVKKTGSSVKVSCKASGFNIKDYYLHWVRQAPGQALEWMGWIDPDQGDTEYAQKFQDRVTITRDRSMSTAYMELSSLRSEDTAMYYCNAAYGSSSYPMDYWGQGTTVTVSS
VL: NIQMTQSPSAMSASVGDRVTITCKASQDIHRYLSWFQQKPGKVPKHLIYRANRLVSGVPSRFSGSGSGTEFTLTISSLQPEDFATYYCLQYDEFPYTFGGGTKVEIK
notes: also called anti-CD47 monoclonal antibody CC-90002
B1: the Kd in assay [1] was 0.54 nM.

B2: TPP-23 (408_437 Fab with IgG1) (antibody, V domains shown)
VH: B1 VH with T14P, Q43K, A44G, D66G, M76T, S84R, S88A, M93V, T115L
VL: B1 VL with A10S, M11L, K24R
notes: The crystal structure was made with an anti-CD47 Fab of this antibody; also called parental CD47 mAb
As for B2, in the assay with human CD47 on cells [2], the IC50 was 0.11 nM.

B3: TPP-1361 (bispecific antibody, human IgG1, kappa)
light 1: NIQMTQSPSSLSASVGDRVTITCQASQDIHRYLSWFQQDPGTVPQHLIYRESRFVDGVPSRFSGSGSGTEFTLTISSLQPEDFATYYCLQYDEFPYTFGGGTKVEIKRTVAAPSVFIFPPSDEELKSGTASVVCWLNNFYPREAKVQWKVDNALQSGNSEESVTEQDSKDSTYSLSSTLELSKADYEKHKVYACEVTHQGLSSPVTKSFNRGEC
heavy 1: QMQLVQSGAEVKKPGSSVKVSCKASGFNIKDYYLHWVRQAPGQGLEWMGWIDPDQGDTYYAQKFQGRVTITRDRSTSTAYMELASLTAEDTAVYYCNAAYGESSYPMDYWGQGTLVTVSSASTKGPSVFPLAPSSKSTSGGTAALGCLVKDYFPEPVTVSWNSGALTSGVHTFPAVLKSSGLYSLSSVVTVPSSSLGTQTYICNVNHKPSNTKVDKKVEPKSCDKTHTCPPCPAPELLGGPSVFLFPPKPKDTLMISRTPEVTCVVVDVSHEDPEVKFNWYVDGVEVHNAKTKPREEQYNSTYRVVSVLTVLHQDWLNGKEYKCKVSNKALPAPIEKTISKAKGQPREPQVYVLPPSREEMTKNQVSLLCLVKGFYPSDIAVEWESNGQPENNYLTWPPVLDSDGSFFLYSKLTVDKSRWQQGNVFSCSVMHEALHNHYTQKSLSLSPGK
light 2: QIVLSQSPAILSASPGEKVTMTCRASSSVSYIHWFQQKPGSSPKPWIYATSNLASGVPVRFSGSGSGTSYSLTISRVEAEDAATYYCQQWTSNPPTFGGGTKLEIKRTVAAPSVAIFPPSDERLKSGTASVVCVLNNFYPREAKVQWKVDNALQSGNSQESVTEQDSKDSTYSLSSRLTLSKADYEKHKVYACEVTHQGLSSPVTKSFNRGEC
heavy 2: QVQLQQPGAELVKPGASVKMSCKASGYTFTSYNMHWVKQTPGRGLEWIGAIYPGNGDTSYNQKFKGKATLTADKSSSTAYMQLSSLTSEDSAVYYCARSTYYGGDWYFNVWGAGTTVTVSAASTKGPSVFPLAPSSKSTSGGTAWLGCEVTDYFPEPVTVSWNSGALTSGVHTFPAVLESSGLYSLSSVVTVPSSSLGTQTYICNVNHKPSNTKVDKKVEPKSCDKTHTCPPCPAPELLGGPSVFLFPPKPKDTLMISRTPEVTCVVVDVSHEDPEVKFNWYVDGVEVHNAKTKPREEQYNSTYRVVSVLTVLHQDWLNGKEYKCKVSNKALPAPIEKTISKAKGQPREPQVYVYPPSREEMTKNQVSLTCLVKGFYPSDIAVEWESNGQPENNYKTTPPVLDSDGSFALVSKLTVDKSRWQQGNVFSCSVMHEALHNHYTQKSLSLSPGK
notes: Four-chain IgG1 heterodimer; also called CD47xCD20 bispecific
Consider B3, for which, in the assay with human CD47 on cells [3], the “EC50 of macrophage phagocytosis of OCI-Ly3 cells, OCI-Ly3 Mφ EC50 (µg/mL) REPEAT” value was determined as 0.45 µg/mL and the “EC50 of macrophage phagocytosis of OCI-Ly3 cells, column OCI-Ly3 Mφ EC50” value worked out at 0.5 µg/mL. Moreover, binding in assay [4] was put at a Kd of 2530 nM.

B4: TPP-1367 (bispecific antibody, human IgG1, kappa)
anti-CD47 light chain: B3 light 1 with Q24R, D39K, T42K, Q45K, E51A, S52N, F54L, D56S
anti-CD47 heavy chain: B3 heavy 1 with Q43K, A84R, T87R
anti-CD20 light chain: B3 light 2
anti-CD20 heavy chain: B3 heavy 2
notes: IgG1 1+1 heterodimer; also called CD47/CD20 TPP1367; CD47xCD20 bispecific
Turning to B4, in the assay with human CD47 on cells [3], the “EC50 of macrophage phagocytosis of OCI-Ly3 cells, OCI-Ly3 Mφ EC50 (µg/mL) REPEAT” value was 0.046 µg/mL and the “EC50 of macrophage phagocytosis of OCI-Ly3 cells, column OCI-Ly3 Mφ EC50” value was found to be 0.064 µg/mL. The same molecule gave a Kd in assay [4] of 430 nM.
